Source: patent publication US20140072613A1, “Compositions and Methods for Treating Cutaneous Scarring” (priority 2012, published 2014)

Legend:
Assay in all cases: biochemical
Assay type in all cases: biochemical
266 human kinases [1] = target: 266 human kinases (Homo sapiens, UniProt O43353); conditions: RIPK2(h); 100 μM
Summary of the method: (§1)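 A filter-capture radiometric assay: phosphorylated cationic substrate binds an anionic membrane and is scintillation-counted, with values referenced to full-activity control.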

266 human kinases [2] = target: 266 human kinases (Homo sapiens, UniProt P08581); conditions: Met(h); 100 μM
Summary of the method: as §1

266 human kinases [3] = target: 266 human kinases (Homo sapiens, UniProt P08922); conditions: Ros(h); 100 μM
Summary of the method: as §1

266 human kinases [4] = target: 266 human kinases (Homo sapiens, UniProt P12931, T341M); conditions: Src(T341M)(h); 100 μM
Summary of the method: as §1

266 human kinases [5] = target: 266 human kinases (Homo sapiens, UniProt P14616); conditions: IRR(h); 100 μM
Summary of the method: as §1

266 human kinases [6] = target: 266 human kinases (Homo sapiens, UniProt P16234); conditions: PDGFRα(h); 100 μM
266 human kinases (Homo sapiens, UniProt P16234), sequence (P16234 24-1089): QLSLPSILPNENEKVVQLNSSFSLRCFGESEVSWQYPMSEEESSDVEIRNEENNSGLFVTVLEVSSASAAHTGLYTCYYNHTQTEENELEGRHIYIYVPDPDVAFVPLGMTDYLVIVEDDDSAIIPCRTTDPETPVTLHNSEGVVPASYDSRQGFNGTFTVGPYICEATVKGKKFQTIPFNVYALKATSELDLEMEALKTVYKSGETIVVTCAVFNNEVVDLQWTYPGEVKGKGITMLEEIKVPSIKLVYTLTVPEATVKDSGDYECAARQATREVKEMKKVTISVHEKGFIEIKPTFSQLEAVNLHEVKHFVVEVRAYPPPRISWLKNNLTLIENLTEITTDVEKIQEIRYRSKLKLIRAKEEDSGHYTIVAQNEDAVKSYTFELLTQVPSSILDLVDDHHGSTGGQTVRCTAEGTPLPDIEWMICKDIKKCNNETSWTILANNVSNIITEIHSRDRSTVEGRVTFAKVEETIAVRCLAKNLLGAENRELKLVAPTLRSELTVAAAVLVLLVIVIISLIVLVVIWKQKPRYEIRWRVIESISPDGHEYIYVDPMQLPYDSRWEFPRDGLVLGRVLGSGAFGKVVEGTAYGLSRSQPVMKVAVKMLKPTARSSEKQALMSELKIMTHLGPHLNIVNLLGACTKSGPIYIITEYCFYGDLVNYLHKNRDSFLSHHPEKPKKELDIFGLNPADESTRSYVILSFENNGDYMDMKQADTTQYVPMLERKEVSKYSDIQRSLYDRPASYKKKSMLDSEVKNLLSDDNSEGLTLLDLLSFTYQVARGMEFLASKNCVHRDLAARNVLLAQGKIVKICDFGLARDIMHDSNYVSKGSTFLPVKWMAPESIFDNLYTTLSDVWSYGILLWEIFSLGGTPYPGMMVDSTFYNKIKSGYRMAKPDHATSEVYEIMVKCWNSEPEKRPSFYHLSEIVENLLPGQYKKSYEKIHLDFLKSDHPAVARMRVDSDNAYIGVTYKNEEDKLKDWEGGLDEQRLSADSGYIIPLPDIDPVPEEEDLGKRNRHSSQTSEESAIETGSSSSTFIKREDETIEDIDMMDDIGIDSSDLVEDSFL
Summary of the method: as §1

266 human kinases [7] = target: 266 human kinases (Homo sapiens, UniProt P17948); conditions: Flt1(h); 100 μM
Summary of the method: as §1

266 human kinases [8] = target: T1, 266 human kinases (Homo sapiens, UniProt P29323); conditions: EphB2(h); 100 μM
T1 sequence (P29323 19-1055): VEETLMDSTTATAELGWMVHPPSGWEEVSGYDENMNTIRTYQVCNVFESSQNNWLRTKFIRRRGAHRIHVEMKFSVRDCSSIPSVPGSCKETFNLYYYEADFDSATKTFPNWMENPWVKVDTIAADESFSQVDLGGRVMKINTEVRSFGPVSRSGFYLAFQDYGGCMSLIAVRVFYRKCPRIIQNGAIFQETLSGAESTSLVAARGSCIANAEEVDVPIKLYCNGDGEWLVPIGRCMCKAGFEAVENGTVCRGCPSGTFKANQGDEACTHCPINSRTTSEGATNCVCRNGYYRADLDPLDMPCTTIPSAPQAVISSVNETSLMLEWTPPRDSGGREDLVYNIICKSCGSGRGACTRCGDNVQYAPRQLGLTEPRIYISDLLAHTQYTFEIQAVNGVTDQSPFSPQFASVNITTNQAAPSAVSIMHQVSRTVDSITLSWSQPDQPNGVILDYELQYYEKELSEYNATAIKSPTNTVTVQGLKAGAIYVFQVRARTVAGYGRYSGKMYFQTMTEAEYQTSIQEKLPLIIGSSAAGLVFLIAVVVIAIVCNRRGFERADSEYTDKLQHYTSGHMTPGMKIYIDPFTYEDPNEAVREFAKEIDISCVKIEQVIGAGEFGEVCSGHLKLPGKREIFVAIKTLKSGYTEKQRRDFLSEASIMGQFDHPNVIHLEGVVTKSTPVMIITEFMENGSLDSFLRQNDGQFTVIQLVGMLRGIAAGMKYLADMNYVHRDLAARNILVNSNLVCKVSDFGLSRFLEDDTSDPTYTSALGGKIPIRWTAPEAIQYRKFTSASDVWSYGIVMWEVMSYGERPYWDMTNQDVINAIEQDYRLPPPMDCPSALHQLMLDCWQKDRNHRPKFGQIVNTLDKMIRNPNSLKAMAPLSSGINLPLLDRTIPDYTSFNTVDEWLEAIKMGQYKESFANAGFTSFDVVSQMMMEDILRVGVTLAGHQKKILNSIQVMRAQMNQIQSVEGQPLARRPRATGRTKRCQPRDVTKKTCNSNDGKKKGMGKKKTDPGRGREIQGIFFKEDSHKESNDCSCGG
Summary of the method: as §1

266 human kinases [9] = target: 266 human kinases (Homo sapiens, UniProt Q00535); conditions: 100 μM
266 human kinases (Homo sapiens, UniProt Q00535), sequence (Q00535 whole entry): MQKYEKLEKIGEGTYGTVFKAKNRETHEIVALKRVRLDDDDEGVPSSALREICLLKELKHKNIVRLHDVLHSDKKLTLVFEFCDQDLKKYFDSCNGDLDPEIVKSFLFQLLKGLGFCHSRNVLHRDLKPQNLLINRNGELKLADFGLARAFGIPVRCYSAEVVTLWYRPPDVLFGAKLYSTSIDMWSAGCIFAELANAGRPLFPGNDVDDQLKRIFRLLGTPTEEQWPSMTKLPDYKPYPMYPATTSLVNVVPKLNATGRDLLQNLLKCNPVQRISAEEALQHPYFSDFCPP
Summary of the method: as §1

266 human kinases [10] = target: 266 human kinases (Homo sapiens, UniProt Q04759); conditions: PKCθ(h); 100 μM
Summary of the method: as §1

266 human kinases [11] = target: T2, 266 human kinases (Homo sapiens, UniProt Q08881); conditions: Itk(h); 100 μM
T2 sequence (Q08881 1-620): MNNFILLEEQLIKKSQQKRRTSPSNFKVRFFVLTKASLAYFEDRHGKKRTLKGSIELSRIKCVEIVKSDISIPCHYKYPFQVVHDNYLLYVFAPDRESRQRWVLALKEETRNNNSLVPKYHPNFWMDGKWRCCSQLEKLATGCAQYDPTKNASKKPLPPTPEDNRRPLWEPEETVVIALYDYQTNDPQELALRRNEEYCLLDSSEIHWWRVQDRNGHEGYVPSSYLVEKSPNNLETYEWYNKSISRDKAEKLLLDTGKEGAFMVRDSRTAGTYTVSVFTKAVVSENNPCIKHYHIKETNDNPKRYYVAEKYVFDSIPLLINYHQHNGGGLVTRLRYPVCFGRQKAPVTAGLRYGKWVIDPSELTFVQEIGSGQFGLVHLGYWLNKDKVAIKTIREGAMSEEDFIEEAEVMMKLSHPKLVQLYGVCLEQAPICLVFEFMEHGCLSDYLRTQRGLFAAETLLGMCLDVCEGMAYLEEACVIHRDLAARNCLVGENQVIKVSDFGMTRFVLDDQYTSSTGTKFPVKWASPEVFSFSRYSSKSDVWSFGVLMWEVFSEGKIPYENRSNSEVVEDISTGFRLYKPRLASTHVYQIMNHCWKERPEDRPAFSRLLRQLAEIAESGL
Summary of the method: as §1

266 human kinases [12] = target: 266 human kinases (Homo sapiens, UniProt Q13177); conditions: PAK2(h); 100 μM
266 human kinases (Homo sapiens, UniProt Q13177), sequence (Q13177 whole entry): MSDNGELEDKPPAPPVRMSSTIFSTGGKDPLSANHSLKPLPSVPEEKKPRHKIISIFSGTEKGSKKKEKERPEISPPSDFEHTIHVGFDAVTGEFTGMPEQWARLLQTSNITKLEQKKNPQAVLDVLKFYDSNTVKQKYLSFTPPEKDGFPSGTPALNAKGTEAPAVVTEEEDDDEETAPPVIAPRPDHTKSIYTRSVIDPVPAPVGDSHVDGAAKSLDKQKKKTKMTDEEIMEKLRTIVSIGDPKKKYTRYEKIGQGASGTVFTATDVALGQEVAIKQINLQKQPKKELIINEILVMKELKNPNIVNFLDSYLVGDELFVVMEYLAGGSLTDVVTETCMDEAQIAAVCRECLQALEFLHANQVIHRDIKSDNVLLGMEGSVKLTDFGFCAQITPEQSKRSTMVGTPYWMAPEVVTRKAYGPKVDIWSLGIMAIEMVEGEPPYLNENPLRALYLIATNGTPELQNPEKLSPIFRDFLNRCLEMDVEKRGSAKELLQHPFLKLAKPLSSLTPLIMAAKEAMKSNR
Summary of the method: as §1

266 human kinases [13] = target: 266 human kinases (Homo sapiens, UniProt Q15759); conditions: SAPK2b(h); 100 μM
266 human kinases (Homo sapiens, UniProt Q15759), sequence (Q15759 whole entry): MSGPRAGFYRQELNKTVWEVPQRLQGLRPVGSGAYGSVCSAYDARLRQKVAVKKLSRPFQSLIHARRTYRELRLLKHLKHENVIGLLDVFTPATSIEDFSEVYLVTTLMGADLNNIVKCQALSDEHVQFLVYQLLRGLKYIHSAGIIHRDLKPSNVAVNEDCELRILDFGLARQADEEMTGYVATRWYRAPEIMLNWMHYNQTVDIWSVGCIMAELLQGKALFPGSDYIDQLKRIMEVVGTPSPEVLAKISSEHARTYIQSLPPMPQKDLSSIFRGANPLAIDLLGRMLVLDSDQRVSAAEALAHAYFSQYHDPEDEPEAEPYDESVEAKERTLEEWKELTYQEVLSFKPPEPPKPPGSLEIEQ
Summary of the method: as §1

266 human kinases [14] = target: 266 human kinases (Homo sapiens, UniProt Q9P1W9); conditions: Pim-2(h); 100 μM
266 human kinases (Homo sapiens, UniProt Q9P1W9), sequence (Q9P1W9 whole entry): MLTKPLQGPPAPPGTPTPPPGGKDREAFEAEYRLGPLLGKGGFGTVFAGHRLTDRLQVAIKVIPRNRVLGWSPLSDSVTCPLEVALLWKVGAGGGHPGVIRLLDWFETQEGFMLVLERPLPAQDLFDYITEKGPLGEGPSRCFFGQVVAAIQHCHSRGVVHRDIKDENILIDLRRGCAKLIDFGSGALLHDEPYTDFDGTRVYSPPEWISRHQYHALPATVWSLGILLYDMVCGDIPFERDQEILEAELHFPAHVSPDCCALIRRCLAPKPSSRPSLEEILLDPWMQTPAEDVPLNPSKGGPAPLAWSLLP
Summary of the method: as §1

266 human kinases [15] = target: 266 human kinases (Homo sapiens, UniProt Q9UIK4); conditions: DAPK2(h); 100 μM
266 human kinases (Homo sapiens, UniProt Q9UIK4), sequence (Q9UIK4 whole entry): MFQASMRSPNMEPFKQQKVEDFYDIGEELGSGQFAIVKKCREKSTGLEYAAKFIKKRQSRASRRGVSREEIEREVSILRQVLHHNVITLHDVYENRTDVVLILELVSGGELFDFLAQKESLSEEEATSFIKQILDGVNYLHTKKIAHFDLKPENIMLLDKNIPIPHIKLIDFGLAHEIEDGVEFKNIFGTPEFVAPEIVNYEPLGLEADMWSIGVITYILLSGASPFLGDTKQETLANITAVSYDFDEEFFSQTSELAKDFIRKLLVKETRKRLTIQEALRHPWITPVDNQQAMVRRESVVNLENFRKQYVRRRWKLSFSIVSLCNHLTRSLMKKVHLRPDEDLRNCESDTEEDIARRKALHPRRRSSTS
Summary of the method: as §1

266 human kinases [16] = target: 266 human kinases (Homo sapiens, UniProt Q9UM73); conditions: ALK(h); 100 μM
266 human kinases (Homo sapiens, UniProt Q9UM73), sequence (Q9UM73 19-1620): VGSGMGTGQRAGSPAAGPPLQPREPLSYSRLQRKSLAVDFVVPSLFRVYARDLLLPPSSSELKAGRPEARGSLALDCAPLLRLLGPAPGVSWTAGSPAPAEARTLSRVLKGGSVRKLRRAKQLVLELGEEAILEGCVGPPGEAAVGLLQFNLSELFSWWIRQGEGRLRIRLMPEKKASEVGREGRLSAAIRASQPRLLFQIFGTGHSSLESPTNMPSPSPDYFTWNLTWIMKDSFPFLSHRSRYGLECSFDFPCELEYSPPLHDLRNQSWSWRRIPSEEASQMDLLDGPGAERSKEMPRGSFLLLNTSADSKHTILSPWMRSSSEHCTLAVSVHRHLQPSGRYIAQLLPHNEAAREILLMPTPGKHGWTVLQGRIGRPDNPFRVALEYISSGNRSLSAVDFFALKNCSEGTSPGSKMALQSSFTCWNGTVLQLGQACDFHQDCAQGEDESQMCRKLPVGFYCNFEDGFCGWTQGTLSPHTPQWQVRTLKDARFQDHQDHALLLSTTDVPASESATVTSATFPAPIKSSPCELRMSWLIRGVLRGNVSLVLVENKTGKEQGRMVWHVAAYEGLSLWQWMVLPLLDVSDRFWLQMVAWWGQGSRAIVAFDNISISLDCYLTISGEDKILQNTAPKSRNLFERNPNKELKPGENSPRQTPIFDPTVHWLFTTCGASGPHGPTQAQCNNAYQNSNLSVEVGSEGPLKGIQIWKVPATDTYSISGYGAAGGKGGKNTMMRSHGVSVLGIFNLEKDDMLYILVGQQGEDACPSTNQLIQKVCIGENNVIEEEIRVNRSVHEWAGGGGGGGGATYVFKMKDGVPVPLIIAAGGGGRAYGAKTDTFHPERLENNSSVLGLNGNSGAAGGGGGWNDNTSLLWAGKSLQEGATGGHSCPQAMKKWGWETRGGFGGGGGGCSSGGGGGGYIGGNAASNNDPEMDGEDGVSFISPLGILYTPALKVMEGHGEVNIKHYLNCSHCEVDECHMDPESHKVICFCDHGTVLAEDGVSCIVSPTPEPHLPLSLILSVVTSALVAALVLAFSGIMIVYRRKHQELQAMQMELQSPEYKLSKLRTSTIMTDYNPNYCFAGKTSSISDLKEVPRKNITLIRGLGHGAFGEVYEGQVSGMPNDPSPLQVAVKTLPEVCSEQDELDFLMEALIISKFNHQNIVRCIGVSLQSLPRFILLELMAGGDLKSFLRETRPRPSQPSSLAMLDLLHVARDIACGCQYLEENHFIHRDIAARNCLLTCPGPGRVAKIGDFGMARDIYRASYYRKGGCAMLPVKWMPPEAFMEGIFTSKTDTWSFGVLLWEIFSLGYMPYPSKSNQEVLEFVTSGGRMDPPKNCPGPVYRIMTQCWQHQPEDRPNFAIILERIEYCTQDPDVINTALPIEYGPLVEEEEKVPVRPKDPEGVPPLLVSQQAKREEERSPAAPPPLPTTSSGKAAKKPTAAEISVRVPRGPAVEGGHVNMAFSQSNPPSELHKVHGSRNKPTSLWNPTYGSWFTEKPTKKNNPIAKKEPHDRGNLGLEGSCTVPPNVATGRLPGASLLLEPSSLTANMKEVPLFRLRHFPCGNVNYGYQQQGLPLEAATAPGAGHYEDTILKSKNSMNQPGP
Summary of the method: as §1

Sequence | % activity (266 human kinases [1]) [%] | % activity (266 human kinases [2]) [%] | % activity (266 human kinases [3]) [%] | % activity (266 human kinases [4]) [%] | % activity (266 human kinases [5]) [%] | % activity (266 human kinases [6]) [%] | % activity (266 human kinases [7]) [%] | % activity (266 human kinases [8]) [%] | % activity (266 human kinases [9]; CDK5/p25(h)) [%] | % activity (266 human kinases [9]; CDK5/p35(h)) [%] | % activity (266 human kinases [10]) [%] | % activity (266 human kinases [11]) [%] | % activity (266 human kinases [12]) [%] | % activity (266 human kinases [13]) [%] | % activity (266 human kinases [14]) [%] | % activity (266 human kinases [15]) [%] | % activity (266 human kinases [16]) [%]
HRRIKAWLKKIKALARQLGVAA (mammal) [MMI-0500] | 30 | 27 | 150 | 59 | 10 | 40 | 27 | 70 | 66 | 59 | 62 | 7 | 44 | 42 | 46 | 3 | 12
YARAAARQARAKALNRQLGVA (mammal) [MMI-0200] | 98 | 71 | 86 | 56 | 69 | 108 | 96 | 128 | 97 | 92 | 101 | 98 | 69 | 95 | 74 | 92 | 95
